The numbers were not newly measured in US20040063697A1, “Compositions of cyclooxygenase-2 selective inhibitors and thrombolytic agents for the treatment or prevention of a vaso-occlusive event” (priority 2002, published 2004), which cites them from elsewhere.

Assay in series [1]: not given
The source holds these as a separate data set.

For the next series, the target named is plasminogen (Homo sapiens, UniProt P00747).
Chain of plasminogen (P00747 20-810 limits assumed): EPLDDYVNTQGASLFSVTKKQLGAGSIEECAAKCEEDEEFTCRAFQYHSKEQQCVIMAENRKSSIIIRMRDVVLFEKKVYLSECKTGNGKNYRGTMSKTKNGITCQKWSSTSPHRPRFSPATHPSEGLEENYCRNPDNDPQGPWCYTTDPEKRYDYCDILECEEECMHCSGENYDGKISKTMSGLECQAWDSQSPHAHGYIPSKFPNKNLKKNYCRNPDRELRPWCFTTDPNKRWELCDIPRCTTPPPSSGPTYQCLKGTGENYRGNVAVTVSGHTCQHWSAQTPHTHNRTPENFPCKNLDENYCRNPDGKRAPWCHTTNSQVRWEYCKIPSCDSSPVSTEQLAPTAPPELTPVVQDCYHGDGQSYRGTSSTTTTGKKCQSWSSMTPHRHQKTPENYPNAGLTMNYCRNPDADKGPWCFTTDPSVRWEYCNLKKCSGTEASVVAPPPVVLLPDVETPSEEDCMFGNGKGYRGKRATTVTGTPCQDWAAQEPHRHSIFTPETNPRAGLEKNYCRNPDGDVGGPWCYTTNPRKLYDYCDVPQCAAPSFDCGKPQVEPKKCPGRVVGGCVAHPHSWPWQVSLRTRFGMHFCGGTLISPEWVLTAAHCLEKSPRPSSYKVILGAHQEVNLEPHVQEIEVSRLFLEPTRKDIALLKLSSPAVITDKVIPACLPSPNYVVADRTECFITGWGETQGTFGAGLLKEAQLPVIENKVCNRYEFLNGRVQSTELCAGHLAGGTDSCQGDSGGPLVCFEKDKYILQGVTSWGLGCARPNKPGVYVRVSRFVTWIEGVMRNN

B1: Tenecteplase: human derivative of t-PA (protein, UniProt P00750 36-562, looked up, variant T103N N117Q K296A H297A R298A R299A)
Tissue-type plasminogen …: SYQVICRDEKTQMIYQQHQSWLRPVLRSNRVEYCWCNSGRAQCHSVPVKSCSEPRCFNGGTCQQALYFSDFVCQCPEGFAGKCCEIDTRATCYEDQGISYRGNWSTAESGAECTNWQSSALAQKPYSGRRPDAIRLGLGNHNYCRNPDRDSKPWCYVFKAGKYSSEFCSTPACSEGNSDCYFGNGSAYRGTHSLTESGASCLPWNSMILIGKVYTAQNPSAQALGLGKHNYCRNPDGDAKPWCHVLKNRRLTWEYCDVPSCSTCGLRQYSQPQFRIKGGLFADIASHPWQAAIFAAAAASPGERFLCGGILISSCWILSAAHCFQERFPPHHLTVILGRTYRVVPGEEEQKFEVEKYIVHKEFDDDTYDNDIALLQLKSDSSRCAQESSVVRTVCLPPADLQLPDWTECELSGYGKHEALSPFYSERLKEAHVRLYPSSRCTSQHLLNRTVTDNMLCAGDTRSGGPQANLHDACQGDSGGPLVCLNDGRMTLVGIISWGLGCGQKDVPGVYTKVTNYLDWIRDNMRP
Regarding B1, where the note is “in vivo”, the Elimination entry was “Hepatic” and the “Half-Life” value is 20 to 25 min. The “plasma clearance time and half-life” value (in words) was “lower plasma clearance time and a longer half-life”. In addition, in series [1] (in vivo), the Antigenicity result is reported as “No”. Moreover, the immune response entry in series [1] (when administered to a human) is “no immune response is elicited”. The “Method of Plasminogen Activation” value with plasminogen was “Direct”.
